Experimental data reported in patent US20240182536A1 (MURAL ONCOLOGY, published 2024).

T1: IL-18 receptors on HEK-Blue IL-18 reporter cells (UniProt Q13478 19-541; O95256 20-599, limits assumed)
T1 sequence (looked up) 1: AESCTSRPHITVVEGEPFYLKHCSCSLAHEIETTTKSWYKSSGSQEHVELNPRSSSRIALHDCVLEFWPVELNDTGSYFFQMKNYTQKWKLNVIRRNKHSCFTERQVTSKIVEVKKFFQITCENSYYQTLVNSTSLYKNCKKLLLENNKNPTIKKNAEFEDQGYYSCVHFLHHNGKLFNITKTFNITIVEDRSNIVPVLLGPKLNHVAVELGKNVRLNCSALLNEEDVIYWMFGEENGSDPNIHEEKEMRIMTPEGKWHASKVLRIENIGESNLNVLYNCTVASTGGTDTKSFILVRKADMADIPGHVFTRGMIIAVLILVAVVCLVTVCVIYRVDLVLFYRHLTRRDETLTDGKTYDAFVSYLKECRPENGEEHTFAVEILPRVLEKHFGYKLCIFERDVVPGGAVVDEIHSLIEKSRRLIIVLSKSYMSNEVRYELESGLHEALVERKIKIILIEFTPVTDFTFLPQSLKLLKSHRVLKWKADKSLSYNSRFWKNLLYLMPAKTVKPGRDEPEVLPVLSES
T1 sequence (looked up) 2: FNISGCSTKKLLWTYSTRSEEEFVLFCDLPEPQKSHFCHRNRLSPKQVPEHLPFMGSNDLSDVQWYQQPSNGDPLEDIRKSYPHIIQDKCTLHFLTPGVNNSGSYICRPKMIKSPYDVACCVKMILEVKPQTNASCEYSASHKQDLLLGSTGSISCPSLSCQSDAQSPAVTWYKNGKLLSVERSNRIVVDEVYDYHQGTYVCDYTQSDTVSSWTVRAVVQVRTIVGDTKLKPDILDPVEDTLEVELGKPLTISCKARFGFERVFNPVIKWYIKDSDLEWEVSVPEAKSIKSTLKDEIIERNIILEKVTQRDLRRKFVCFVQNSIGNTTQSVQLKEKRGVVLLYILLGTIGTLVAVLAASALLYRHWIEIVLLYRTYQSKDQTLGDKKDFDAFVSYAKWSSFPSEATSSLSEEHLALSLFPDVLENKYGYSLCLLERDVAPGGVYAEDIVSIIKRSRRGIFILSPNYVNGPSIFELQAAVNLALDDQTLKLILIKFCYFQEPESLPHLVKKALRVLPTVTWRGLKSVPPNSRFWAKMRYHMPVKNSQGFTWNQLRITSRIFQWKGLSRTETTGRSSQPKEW

T2: IL-18 binding protein (IL-18BP) (UniProt O95998 31-194)
T2 sequence (looked up): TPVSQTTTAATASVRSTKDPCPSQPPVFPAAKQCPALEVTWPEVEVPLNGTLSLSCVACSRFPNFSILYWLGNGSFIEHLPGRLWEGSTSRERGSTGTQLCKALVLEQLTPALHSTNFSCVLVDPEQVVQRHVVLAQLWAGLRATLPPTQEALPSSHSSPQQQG


Tests used:
[1] = biological target: T1, IL-18 receptors on HEK-Blue IL-18 …; assay: cell-based or functional assay
[2] = biological target: T2, IL-18 binding protein (IL-18BP); assay: cell-based or functional assay

Row | Binder | Activity, No BP, DF-100000 [1] | Activity, No BP, DF-500000 [1] | Activity, No BP, DF-2500000 [1] | Activity, +100 nM BP, DF-1000002 [2] | Activity, +100 nM BP, DF-5000003 [2] | Activity, +100 nM BP, DF-25000004 [2] | Ratio (-BP/+BP), DF-1000005 [2] | Ratio (-BP/+BP), DF-5000006 [2] | Ratio (-BP/+BP), DF-25000007 [2]
1 | IL-18 variant E6N, D54N, S55N, N91H, R104P (ligand) YFGKLNSKLSVIRNLNDQVLFIDQGNRPLFEDMTDSDMRDNAPRTIFIISMYKNNQPRGMAVTISVKSEKISTLSSENKIISFKEMNPPDHIKDTKSDIIFFQPSVPGHDNKMQFESSSYEGYFLASEKERDLFKLILKKEDELGDRSIMFTVQNED | 0.08 | 0.07 | 0.07 | 0.08 | 0.08 | 0.09 | 0.99 | 0.93 | 0.78
2 | IL-18 variant G3P, E6N, D54Y, T63S, N91S, R104Q (ligand) YFPKLNSKLSVIRNLNDQVLFIDQGNRPLFEDMTDSDMRDNAPRTIFIISMYKYSQPRGMAVSISVKSEKISTLSSENKIISFKEMNPPDSIKDTKSDIIFFQQSVPGHDNKMQFESSSYEGYFLASEKERDLFKLILKKEDELGDRSIMFTVQNED | 0.21 | 0.1 | 0.07 | 0.25 | 0.1 | 0.08 | 0.86 | 1.02 | 0.89
3 | IL-18 variant E6T, D54P, S55K, R104S (ligand) YFGKLTSKLSVIRNLNDQVLFIDQGNRPLFEDMTDSDMRDNAPRTIFIISMYKPKQPRGMAVTISVKSEKISTLSSENKIISFKEMNPPDNIKDTKSDIIFFQSSVPGHDNKMQFESSSYEGYFLASEKERDLFKLILKKEDELGDRSIMFTVQNED | 0.17 | 0.09 | 0.1 | 0.18 | 0.09 | 0.08 | 0.98 | 0.99 | 1.3
4 | IL-18 variant G3R, E6D, D54A, S55Q, T63S, N91K, R104P (ligand) YFRKLDSKLSVIRNLNDQVLFIDQGNRPLFEDMTDSDMRDNAPRTIFIISMYKAQQPRGMAVSISVKSEKISTLSSENKIISFKEMNPPDKIKDTKSDIIFFQPSVPGHDNKMQFESSSYEGYFLASEKERDLFKLILKKEDELGDRSIMFTVQNED | 0.07 | 0.08 | 0.07 | 0.07 | 0.08 | 0.07 | 0.98 | 0.98 | 0.96
5 | IL-18 variant G3P, E6S, K53R, D54Y, S55P, T63I, N91K (ligand) YFPKLSSKLSVIRNLNDQVLFIDQGNRPLFEDMTDSDMRDNAPRTIFIISMYRYPQPRGMAVIISVKSEKISTLSSENKIISFKEMNPPDKIKDTKSDIIFFQRSVPGHDNKMQFESSSYEGYFLASEKERDLFKLILKKEDELGDRSIMFTVQNED | 0.15 | 0.08 | 0.07 | 0.14 | 0.08 | 0.07 | 1.07 | 0.97 | 0.99
6 | IL-18 variant G3P, E6K, K53N, D54S, S55P, T63S, N91S, R104Q (ligand) YFPKLKSKLSVIRNLNDQVLFIDQGNRPLFEDMTDSDMRDNAPRTIFIISMYNSPQPRGMAVSISVKSEKISTLSSENKIISFKEMNPPDSIKDTKSDIIFFQQSVPGHDNKMQFESSSYEGYFLASEKERDLFKLILKKEDELGDRSIMFTVQNED | 0.07 | 0.08 | 0.07 | 0.07 | 0.07 | 0.07 | 0.92 | 1.03 | 0.95
7 | IL-18 variant G3Q, E6N, K53T, D54A, N91K, R104P (ligand) YFQKLNSKLSVIRNLNDQVLFIDQGNRPLFEDMTDSDMRDNAPRTIFIISMYTASQPRGMAVTISVKSEKISTLSSENKIISFKEMNPPDKIKDTKSDIIFFQPSVPGHDNKMQFESSSYEGYFLASEKERDLFKLILKKEDELGDRSIMFTVQNED | 0.07 | 0.08 | 0.07 | 0.07 | 0.09 | 0.08 | 1.03 | 0.89 | 0.95
8 | IL-18 variant G3P, E6D, K53T, D54N, T63A, N91T, R104P (ligand) YFPKLDSKLSVIRNLNDQVLFIDQGNRPLFEDMTDSDMRDNAPRTIFIISMYTNSQPRGMAVAISVKSEKISTLSSENKIISFKEMNPPDTIKDTKSDIIFFQPSVPGHDNKMQFESSSYEGYFLASEKERDLFKLILKKEDELGDRSIMFTVQNED | 0.07 | 0.07 | 0.07 | 0.07 | 0.08 | 0.07 | 0.95 | 0.92 | 1.01
9 | IL-18 variant G3P, E6R, K53T, D54Y, S55I, T63V, N91G, R104K (ligand) YFPKLRSKLSVIRNLNDQVLFIDQGNRPLFEDMTDSDMRDNAPRTIFIISMYTYIQPRGMAVVISVKSEKISTLSSENKIISFKEMNPPDGIKDTKSDIIFFQKSVPGHDNKMQFESSSYEGYFLASEKERDLFKLILKKEDELGDRSIMFTVQNED | 0.14 | 0.08 | 0.07 | 0.15 | 0.08 | 0.07 | 0.93 | 0.96 | 0.99
